In publication PMC9150345:

Key:
[1] = target: hTBPQ80, hTBP with an extension of 80 glutamine residues (amino acids 50-142), fused to the N-terminal fragment of Venus (human) (UniProt P20226); assay: split reporter (BiFC, NanoBiT); BiFC in HEK293 cells co-transfected with VC- and VN- constructs and pCAG-mCherry; read 48 h after transfection; interaction percent = green cells per 100 red cells
[2] = target: Antp-hTBP heterodimer (VCAntp-VNTBP, Venus reconstituted by BiFC) (Drosophila | human) (UniProt P02833)
Antp-hTBP heterodimer (VCAntp-VNTBP, Venus reconstituted by BiFC) (Drosophila | human), sequence (P02833 whole entry, chain 1 of 2): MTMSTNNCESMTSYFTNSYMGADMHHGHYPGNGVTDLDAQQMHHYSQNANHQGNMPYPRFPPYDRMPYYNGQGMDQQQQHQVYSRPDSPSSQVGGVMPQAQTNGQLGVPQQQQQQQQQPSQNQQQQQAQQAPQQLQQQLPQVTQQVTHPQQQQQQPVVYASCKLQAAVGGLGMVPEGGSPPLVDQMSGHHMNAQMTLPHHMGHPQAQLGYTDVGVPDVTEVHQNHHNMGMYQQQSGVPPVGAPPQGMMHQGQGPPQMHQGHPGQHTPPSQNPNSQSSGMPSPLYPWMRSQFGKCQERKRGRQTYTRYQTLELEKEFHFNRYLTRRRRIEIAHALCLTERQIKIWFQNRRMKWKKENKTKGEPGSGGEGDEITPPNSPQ
Antp-hTBP heterodimer (VCAntp-VNTBP, Venus reconstituted by BiFC) (Drosophila | human), sequence (P20226 whole entry, chain 2 of 2, further chain): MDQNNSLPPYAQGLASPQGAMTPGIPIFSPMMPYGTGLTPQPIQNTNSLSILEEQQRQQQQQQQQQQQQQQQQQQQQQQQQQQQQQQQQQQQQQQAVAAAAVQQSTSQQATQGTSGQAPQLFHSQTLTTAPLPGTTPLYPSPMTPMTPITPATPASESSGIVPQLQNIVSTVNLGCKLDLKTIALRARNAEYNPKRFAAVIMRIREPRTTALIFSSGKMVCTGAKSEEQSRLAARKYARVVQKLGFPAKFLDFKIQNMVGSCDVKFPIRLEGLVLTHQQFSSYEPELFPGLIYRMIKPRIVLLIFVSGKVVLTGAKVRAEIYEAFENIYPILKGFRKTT

hTBPQ80, hTBP with an extension of 80 glutamine residues (amino acids 50-142), fused to the N-terminal fragment of Venus (human), sequence (P20226 whole entry, the tested form may be a part): as the sequence (P20226 whole entry, chain 2 of 2, further chain) above
AntpΔN, Antp lacking the N-terminal region (amino acids 1-269), fused to the C-terminal fragment of Venus, sequence (P02833 270-378, stated change not applied): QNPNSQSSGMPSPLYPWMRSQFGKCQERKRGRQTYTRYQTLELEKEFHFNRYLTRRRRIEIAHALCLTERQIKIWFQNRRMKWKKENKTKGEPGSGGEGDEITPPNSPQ
Antennapedia (Antp), fused to the C-terminal fragment of Venus, sequence (P02833 whole entry, the tested form may be a part): as the sequence (P02833 whole entry, chain 1 of 2) above

| percent of transfected cells showing BiFC [1] | Antp transactivation on pGLH11 with co-expressed TBP and BIP2, percent of Antp alone (Fig. 5D) [2] | Substance |
| --- | --- | --- |
| 78% | – | Antennapedia (Antp), fused to the C-terminal fragment of Venus (from UniProt P02833 1-378) (natural protein) |
| – | 74% | Bric-a-brac interacting protein BIP2 (2–89) fused to ECFP (from UniProt Q9XZU7 2-89) (domain or fragment) |
| 47% | – | AntpΔN, Antp lacking the N-terminal region (amino acids 1-269), fused to the C-terminal fragment of Venus (from UniProt P02833 270-378) (domain or fragment) |
